Laboratory results reported in publication PMC7319273 (Science (New York, N.y.), 2020).

Assays:
[1] = biological target: T1, SARS-CoV-2 Spike protein extracellular domain (S-ECD), as used in ELISA and BLI (SARS-CoV-2, Wuhan-Hu-1 (P0DTC2)); assay: cell-based or functional assay
[2] = biological target: T1, SARS-CoV-2 Spike protein extracellular …; assay: BLI; settings: both partners purified

B1: 1M-1D2 (human monoclonal antibody) (antibody, V domains shown)
VH: QVQLVESGGGLVQPGGSLRLSCAASGFTFSSYAMHWVRQAPGKGLEYVSAISGNGGSTYYAKSVKGRFTISRDNSKNTLYLQMGSLRAEDMAVYYCARGAEYYDFWSGYYSAYFDYWGQGTLVTVSS
VL: QAVVTQPPSASGTPGQRVTISCSGSSSNIGSNYVYWYQQLPGTAPKLLIYNNNQRPSGVPDRFSGSKSGTSASLAISGLRSEDEADYYCAAWDDSLIYVLFGGGTKLTVL
neutralization of authentic SARS-CoV-2 in Vero-E6 cells, EC50 [1]: 28 µg/mL | Kd [2]: < 2.14 nM

B2: 9A1 (human monoclonal antibody) (antibody, V domains shown)
VH: EVQLLESGGGVVQPGRSLRLSCVVSGFTFNNYGMHWVRQAPGKGLEWVAVISYEGSVKYYGDHVDGRFTISRDPFKNTLYLHMNNLRPDDTAVYYCAKVSAIFWLGQGLSPIDVWGQGTTVTVSS
VL: DIVMTQSPATLSASPGERVTLSCRASQNIRNNLAWYQQKPGQAPRLLIHGASTRAAGAPARFSGSGSDTQFTLTVSSLQSEDFAVYYCHQYSKWPVTFGGGTKVDIK
notes: also called mAb 9A1
Kd [2]: < 2.14 nM

B3: 0304-3H3 (human monoclonal antibody) (antibody, V domains shown)
VH: EVQLVESGPGLVKPSETLSLTCTASGGSISTYYWSWIRQPPGKGLEWIGYIYYSGSTNYNPSLKSRVTISVDTSKNQFSLKLSSVTAADTAVYYCARDRIAPVGKFFGWYFDLWGRGTLVTVSS
VL: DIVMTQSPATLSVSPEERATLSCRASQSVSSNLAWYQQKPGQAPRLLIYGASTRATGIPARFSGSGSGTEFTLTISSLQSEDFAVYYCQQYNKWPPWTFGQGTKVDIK
notes: also called mAb 0304-3H3
neutralization of authentic SARS-CoV-2 in Vero-E6 cells, EC50 [1]: 0.04 µg/mL | Kd [2]: < 2.14 nM

B4: 2M-10B11 (human monoclonal antibody) (antibody, V domains shown)
VH: EVQLVESGGGLVQPGGSLRLSCAASGFTVSSNYMSWVRQAPGKGLEWVSVIYSGGSTYYADSVKGRFTISRDNSKNTLYLQMNSLRAEDTAVYYCARATWLRGVMDVWGQGTTVTVSS
VL: QSALTQPHSVSESPGKTVTISCTGSSGSIASNYVQWYQQRPGSAPTTVIYEDNQRPSGVPDRFSGSIDSSSNSASLTISGLKTEDEADYYCQSYDSSNHWVFGGGTKLTVL
notes: ELISA group 2B; also called mAb 2M-10B11
Kd [2]: < 2.14 nM
